Experimental data reported in US11938198B2, “Treatment of heart disease by disruption of the anchoring of PP2A” (University of Miami, priority 2019, dated 2024).
Residue numbers refer to the chain shown, from its start. Numbers in names are those of the source.

Columns and labels:
[1] = tested on: adult rat ventricular myocytes (ARVM); test: ARVM morphologic hypertrophy (cell width and length by immunocytochemistry); assay type: cell-based; settings: for PE-induced ARVM hypertrophy / basal ARVM morphology: adenoviral expression; for PE-induced ARVM hypertrophy: 20 μM PE 24 hours; for basal ARVM morphology: no drug
Method: Adult rat ventricular myocyte isolation and culture: 2-3 month old rats were anesthetized using Ketamine (80-100 mg/kg) and Xylazine (5-10 mg/kg) IP following 1000 U heparinization for cardiac excision. The heart was transferred immediately into chilled perfusion buffer (NaCl 120 mM, KCl 5.4 mM, Na2HPO4·7H2O 1.2 mM, NaHCO320.0 mM, MgCl2·6H2O 1.6 mM, Taurine 5 mM, Glucose 5.6 mM, 2,3-Butanedione monoxime 10 mM) pre-equilibrated with 95% O2 and 5% CO2. After removal of extraneous tissue, the heart was attached via the aorta to a Harvard Langendorff apparatus cannula. Ca^2+-free perfusion was used to flush out remaining blood with a constant rate of 8-10 mL/min at 37° C. The heart was then digested through circulatory perfusion with 50 mL perfusion buffer containing 125 mg type II collagenase (Worthington, 245 U/mg), 0.1 mg protease (Sigma type XIV) and 0.1% BSA. After perfusion, the atria were removed and the ventricular myocytes dissociated by slicing and repetitive pipetting. The debris was filtered by a 200 μm nylon mesh, and the myocytes collected by one minute centrifugation at 50 g. Ca^2+ concentration in the buffer was gradually recovered to 1.8 mM and the myocytes were resuspended in ACCT medium (M199 Medium (Invitrogen 11150-059), Creatine 5 mM, L-carnitine 2 mM, Taurine 5 mM, HEPES 25 mM, 2,3-Butanedione monoxime 10 mM, BSA 0.2% and 1×Insulin-Transferrin-Selenium Supplement) and plated on 10 μg/ml laminin pre-coated dishes. Cells were washed with ACCT medium 1.5 hours after plating and subjected to adenoviral infection or siRNA transfection, in which 100-200 Multiplicity of Infection (MOI) of adenovirus and 100 nmol/L siRNA mixed with Dharmafect1 (Dharmacon) were used, respectively. Adrenergic agonists were added the next day, with biochemical assay and morphological measurement performed after 24 hours of stimulation.
Immunocytochemistry: Myocytes on coverslips were fixed in 3.7% formaldehyde in PBS for 1 hour, permeabilized with 0.3% Triton X-100, and blocked in PBS containing 0.2% BSA and 1% horse serum. The slides were then sequentially incubated for 1 hour with primary and Alexa fluorescent dye-conjugated specific-secondary antibodies (Invitrogen, 1:1000) diluted in blocking buffer. The slips were washed three times with blocking buffer. 1 μg/mL Hoechst 33258 was included in the last wash stop to label nuclei. Slides were sealed in SlowFade Gold antifade buffer (Invitrogen, S36938) for fluorescent microscopy. Wide-field images were acquired using a Leica DM4000 Microscope.

[2] = tested on: PDE4D3 Ser-54; test: PDE4D3 Ser-54 phosphorylation in mAKAP immunoprecipitates from transfected HEK293 cells (phospho-specific immunoblot); assay type: cell-based
[3] = biological target: T1, PP2A-A subunit (Homo sapiens, UniProt P30153); test: GST-PP2A-A pull-down of GFP-tagged mAKAP fragments expressed in HEK293 cells; assay type: binding; settings: GFP-tagged fragments in HEK293 cell extracts
T1 construct: made in house; host or cells: bacteria
Method: GST-pulldowns—Glutathione resin adsorbed with PP2A-A subunit GST fusion protein or GST control protein were incubated with HEK293 cell extracts. After an overnight incubation, the beads were washed three times. Bound proteins were analyzed by immunoblotting.
mAKAP residues 2083-2319 contain the PP2A binding domain. In order to map the PP2A binding site on mAKAP, a bacterially-expressed PP2A-A subunit GST-fusion protein was used to pull down GFP-tagged fragments of mAKAP expressed in HEK293 cells (FIGS. 10A & B). GST-PP2A-A consistently pulled down only fragments of mAKAP containing a domain C-terminal to residue 2085.

[4] = biological target: T2, PP2A (Homo sapiens, UniProt P30153+P67775); test: myc-tag immunoprecipitation of mAKAP fragments from HEK293 cells with phosphatase assay; assay type: binding; settings: myc-tagged fragments expressed in HEK293 cells
T2 construct: endogenous in cells; host or cells: HEK293
Method: Immunoprecipitation—HEK293 cells were used in this project as a heterologous system lacking mAKAP in which the various wildtype and mutant proteins could be easily expressed. Cells cultured on 60 mm plates were transfected at 50%-70% confluency by the calcium phosphate method, using 6 μg of each DNA construct per plate. Cells were harvested 24 hours after transfection in 0.5 ml HSE buffer (HEPES, pH 7.4, 150 mM NaCl, 5 mM EDTA, 1% Triton X-100 and protease inhibitors). Supernatants were incubated with 3 μg antibody and 15 μl prewashed protein A- or G-agarose beads. Following overnight incubation at 4° C., the immunoprecipitates were washed three times with the same buffer. Bound proteins were analyzed by immunoblotting.
To measure phosphatase activity, immunoprecipitated protein complexes were washed twice in HSE buffer and once in PP2A reaction buffer. The immunoprecipitates were incubated for 30 minutes at 30° C. in 20 μl PP2A assay buffer containing 100,000 cpm [^32P]histone in the presence and absence of inhibitors. The PP2A inhibitor (Calbiochem) was used at a concentration of 30 nM. Purified I-1 was phosphorylated by PKA before using as a specific PP1 inhibitor. Reactions were terminated by the addition of 100 μl 20% TCA followed by 10 min centrifugation. TCA supernatants containing released ^32PO4 were measured by scintillation counting. […]

T1 sequence (P30153 whole entry, the tested form may be a part): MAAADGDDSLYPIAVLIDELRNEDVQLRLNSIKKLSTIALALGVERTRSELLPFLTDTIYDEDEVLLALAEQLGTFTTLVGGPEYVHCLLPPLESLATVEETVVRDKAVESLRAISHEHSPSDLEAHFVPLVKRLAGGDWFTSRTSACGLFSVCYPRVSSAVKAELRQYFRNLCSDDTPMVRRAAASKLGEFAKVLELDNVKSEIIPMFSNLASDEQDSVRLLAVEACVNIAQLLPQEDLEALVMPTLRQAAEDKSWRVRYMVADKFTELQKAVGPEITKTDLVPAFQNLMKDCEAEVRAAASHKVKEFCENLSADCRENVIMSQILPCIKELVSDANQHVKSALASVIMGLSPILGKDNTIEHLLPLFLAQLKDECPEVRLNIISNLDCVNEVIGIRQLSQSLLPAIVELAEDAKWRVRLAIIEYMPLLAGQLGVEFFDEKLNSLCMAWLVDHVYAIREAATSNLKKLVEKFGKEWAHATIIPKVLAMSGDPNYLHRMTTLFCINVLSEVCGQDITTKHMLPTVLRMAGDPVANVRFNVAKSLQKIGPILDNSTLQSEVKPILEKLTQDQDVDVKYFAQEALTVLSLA
T2 sequence (P67775 whole entry, the tested form may be a part): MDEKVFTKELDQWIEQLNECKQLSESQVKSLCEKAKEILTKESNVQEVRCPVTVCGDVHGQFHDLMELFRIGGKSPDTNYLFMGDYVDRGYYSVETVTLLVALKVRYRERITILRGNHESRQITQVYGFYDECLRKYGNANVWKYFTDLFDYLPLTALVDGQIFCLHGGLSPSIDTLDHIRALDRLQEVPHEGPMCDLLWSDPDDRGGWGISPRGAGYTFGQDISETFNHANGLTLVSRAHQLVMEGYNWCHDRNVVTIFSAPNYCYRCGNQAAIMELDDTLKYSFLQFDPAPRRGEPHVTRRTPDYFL
T2 sequence (P30153 whole entry, the tested form may be a part): as the sequence (P30153 whole entry, the tested form may be a part) above

CC(C)NCC(O)c1ccc(O)c(O)c1 (stereo not drawn) [Iso, isoproterenol, reference compound]
ARVM length and width under chronic β-adrenergic stimulation ([1]; 10 μM Iso, 24 hours): increased both ARVM length and width

CNC[C@H](O)c1cccc(O)c1 [PE, phenylephrine, reference compound]
decrease in ARVM length/width ratio ([1]; 20 μM PE, 24 hours): 8-14% | increase in ARVM width ([1]; 20 μM PE, 24 hours): 8-10%

C=C[C@@]1(C)CC(=O)[C@]2(O)[C@@]3(C)[C@@H](O)CCC(C)(C)[C@@H]3[C@H](O)[C@H](OC(C)=O)[C@@]2(C)O1 [Fsk, forskolin]
further enhancement of PDE4D3 Ser-54 phosphorylation by forskolin ([2]; 5 μM Fsk 10 min, in the presence of OA): 1.8 fold | PDE4D3 Ser-54 phosphorylation, forskolin alone ([2]; 5 μM Fsk, absence of phosphatase inhibition): no significant effect

B1: human 2085-2319: GFP-fusion fragment of human mAKAP residues 2085-2319 (protein)
chain: TSLTQIKEKVLEHSHRPIQLRKGDFYSYLSLSSHDSDCGEVTNYIEEKSSTPLPLDTTDSGLDDKEDIECFFEACVEGDSDGEEPCFSSAPPNESAVPSEAAMPLQATACSSEFSDSSLSADDADTVALSSPSSQERAEVGKEVNGLPQTSSGCAENLEFTPSKLDSEKESSGKPGESGMPEEHNAASAKSKVQDLSLKANQPTDKAALHPSPKTLTCEENLLNLHEKRHRNMHR
modifications: left off: large carriers
binding to GST-PP2A-A (pull-down) [3]: bound GST-PP2A-A

B2: rat mAKAP 1835-2312: GFP-fusion fragment of rat mAKAP (protein)
chain: ANPSDTLDIEALLNGSIRCLSENNGNGKTPPRTHGSGTKGENKKSTYDVSKDPHVADMENGNIESTPEREREKPQGLPEVSENLASNVKTISESELSEYEAVMDGSEDSSVARKEFCPPNDRHPPQMGPKLQHPENQSGDCKPVQNPCPGLLSEAGVGSRQDSNGLKSLPNDAPSGARKPAGCCLLEQNETEESASISSNASCCNCKPDVFHQKDDEDCSVHDFVKEIIDMASTALKSKSQPESEVAAPTSLTQIKEKVLEHSHRPIHLRKGDFYSYLSLSSHDSDCGEVTNYIDEKSSTPLPPDAVDSGLDDKEDMDCFFEACVEDEPVNEEAGLPGALPNESAIEDGAEQKSEQKTASSPVLSDKTDLVPLSGLSPQKGADDAKEGDDVSHTSQGCAESTEPTTPSGKANAEGRSRMQGVSATPEENAASAKPKIQAFSLNAKQPKGKVAMRYPSPQTLTCKEKLVNFHEDRHSNM
modifications: left off: large carriers
binding to GST-PP2A-A (pull-down) [3]: bound GST-PP2A-A

B3: mAKAP 1286-2312: myc-tagged mAKAP construct containing binding sites for PDE4D3, PKA and PP2A (protein)
chain: VYSLHNVELHEDSHTPFLKSSPKFTGTTQPTVLTKSLSKDSSFSSTKSLPDLLGGSGLVRPYSCHSGDLSQNSGSESGIVSEGDNEMPTNSDMSLFSMVDGSPSNPETEHPDPQMGDAANVLEQKFKDNGESIKLSSVSRASVSPVGCVNGKAGDLNSVTKHTADCLGEELQGKHDVFTFYDYSYLQGSKLKLPMIMKQPQSEKAHVEDPLLGGFYFDKKSCKAKHQASESQPDAPPHERILASAPHEMGRSAYKSSDIEKTFTGIQSARQLSLLSRSSSVESLSPGGDLFGLGIFKNGSDSLQRSTSLESWLTSYKSNEDLFSCHSSGDISVSSGSVGELSKRTLDLLNRLENIQSPSEQKIKRSVSDMTLQSSSQKMPFAGQMSLDVASSINEDSPASLTELSSSDELSLCSEDIVLHKNKIPESNASFRKRLNRSVADESDVNVSMIVNVSCTSACTDDEDDSDLLSSSTLTLTEEELCLKDEDDDSSIATDDEIYEESNLMSGLDYIKNELQTWIRPKLSLTREKKRSGVTDEIKVNKDGGGNEKANPSDTLDIEALLNGSIRCLSENNGNGKTPPRTHGSGTKGENKKSTYDVSKDPHVADMENGNIESTPEREREKPQGLPEVSENLASNVKTISESELSEYEAVMDGSEDSSVARKEFCPPNDRHPPQMGPKLQHPENQSGDCKPVQNPCPGLLSEAGVGSRQDSNGLKSLPNDAPSGARKPAGCCLLEQNETEESASISSNASCCNCKPDVFHQKDDEDCSVHDFVKEIIDMASTALKSKSQPESEVAAPTSLTQIKEKVLEHSHRPIHLRKGDFYSYLSLSSHDSDCGEVTNYIDEKSSTPLPPDAVDSGLDDKEDMDCFFEACVEDEPVNEEAGLPGALPNESAIEDGAEQKSEQKTASSPVLSDKTDLVPLSGLSPQKGADDAKEGDDVSHTSQGCAESTEPTTPSGKANAEGRSRMQGVSATPEENAASAKPKIQAFSLNAKQPKGKVAMRYPSPQTLTCKEKLVNFHEDRHSNM
modifications: left off: small tags and cut ends
co-immunoprecipitation with OA-sensitive phosphatase activity [4]: co-immunoprecipitated with OA-sensitive phosphatase activity

B4: SRF S103D: SRF phosphomimetic mutant expressed by adenovirus (protein, UniProt P11831 1-508, looked up, variant S103D)
Serum response factor: MLPTQAGAAAALGRGSALGGSLNRTPTGRPGGGGGTRGANGGRVPGNGAGLGPGRLEREAAAAAATTPAPTAGALYSGSEGDSESGEEEELGAERRGLKRSLDEMEIGMVVGGPEASAAATGGYGPVSGAVSGAKPGKKTRGRVKIKMEFIDNKLRRYTTFSKRKTGIMKKAYELSTLTGTQVLLLVASETGHVYTFATRKLQPMITSETGKALIQTCLNSPDSPPRSDPTTDQRMSATGFEETDLTYQVSESDSSGETKDTLKPAFTVTNLPGTTSTIQTAPSTSTTMQVSSGPSFPITNYLAPVSASVSPSAVSSANGTVLKSTGSGPVSSGGLMQLPTSFTLMPGGAVAQQVPVQAIQVHQAPQQASPSRDSSTDLTQTSSSGTVTLPATIMTSSVPTTVGGHMMYPSPHAVMYAPTSGLGDGSLTVLNAFSQAPSTMQVSHSQVQEPGGVPQVFLTASSGTVQIPVSAVQLHQMAVIGQQAGSSSNLTELQVVNLDTAHSTKSE
PE-induced ARVM hypertrophy [1]: did not enhance nor diminish | basal ARVM morphology [1]: increased ARVM width

B5: SRF S103A: SRF Ser103-to-alanine mutant expressed by adenovirus (protein, UniProt P11831 1-508, looked up, variant S103A)
Serum response factor: B4 Serum response factor with D103A
PE-induced ARVM hypertrophy [1]: inhibited the PE-induced concentric hypertrophy | basal ARVM morphology [1]: did not affect basal myocyte size
